Laboratory results reported in patent US20190202925A1 (OPI VI IP HOLDCO, published 2019).

T1: human TNFR2 on cells (human, UniProt P20333 23-461)
T1 construct: whole, on cells; also called TNFR2 on Jurkat clone H6; human TNFR2 on CD4+ and CD8+ T cells
T1 sequence (looked up): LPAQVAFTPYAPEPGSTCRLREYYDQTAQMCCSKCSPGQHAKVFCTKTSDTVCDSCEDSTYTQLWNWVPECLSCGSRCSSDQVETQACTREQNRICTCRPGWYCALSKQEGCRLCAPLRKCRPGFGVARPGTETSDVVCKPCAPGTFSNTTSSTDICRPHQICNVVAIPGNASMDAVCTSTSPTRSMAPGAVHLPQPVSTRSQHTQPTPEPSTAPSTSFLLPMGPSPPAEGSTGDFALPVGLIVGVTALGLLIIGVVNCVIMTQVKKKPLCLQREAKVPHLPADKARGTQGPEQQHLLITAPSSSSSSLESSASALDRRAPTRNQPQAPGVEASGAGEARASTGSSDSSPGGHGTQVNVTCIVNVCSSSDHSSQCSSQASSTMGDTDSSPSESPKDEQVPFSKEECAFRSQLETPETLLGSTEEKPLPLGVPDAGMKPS

T2: soluble human TNFR2 (human, UniProt P20333 23-257)
T2 construct: also called soluble TNFR2
T2 sequence (looked up): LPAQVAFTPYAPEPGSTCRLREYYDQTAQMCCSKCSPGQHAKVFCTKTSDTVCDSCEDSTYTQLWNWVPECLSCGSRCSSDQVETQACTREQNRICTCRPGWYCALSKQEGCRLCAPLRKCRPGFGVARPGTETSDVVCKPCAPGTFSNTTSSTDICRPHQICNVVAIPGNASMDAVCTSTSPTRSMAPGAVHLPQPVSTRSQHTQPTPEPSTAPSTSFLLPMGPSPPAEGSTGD

T3: monomeric human TNFR2 extracellular domain (human, UniProt P20333 23-257)
T3 construct: extracellular domain; Analyte in the Octet experiments; also called human TNFR2 ECD
T3 sequence (looked up): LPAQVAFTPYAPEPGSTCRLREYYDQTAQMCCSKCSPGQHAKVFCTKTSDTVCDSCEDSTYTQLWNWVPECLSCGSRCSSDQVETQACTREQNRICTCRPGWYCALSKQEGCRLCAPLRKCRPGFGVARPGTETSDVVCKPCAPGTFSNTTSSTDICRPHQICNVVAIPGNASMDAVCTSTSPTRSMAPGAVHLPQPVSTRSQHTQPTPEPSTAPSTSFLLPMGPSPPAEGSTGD

T4: monomeric cynomolgus TNFR2 extracellular domain (cynomolgus monkey, UniProt A0A2K5VET2 132-366)
T4 construct: extracellular domain; Analyte in the Octet experiments; also called cynomolgus TNFR2 ECD; Cyno TNFR2
T4 sequence: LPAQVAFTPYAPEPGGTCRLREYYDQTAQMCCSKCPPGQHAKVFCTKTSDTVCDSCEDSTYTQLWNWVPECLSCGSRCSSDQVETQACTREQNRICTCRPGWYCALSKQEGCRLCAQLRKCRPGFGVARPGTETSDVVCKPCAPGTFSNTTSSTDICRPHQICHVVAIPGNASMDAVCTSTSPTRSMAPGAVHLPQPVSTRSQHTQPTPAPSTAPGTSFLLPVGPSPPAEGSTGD


How the values were obtained:
[1] = molecular target: T1, human TNFR2 on cells; assay: flow cytometry on human PBMC, antibody at 10 ug/mL, anti-human Fc-PE secondary
Method: The following day 0.3×10⁶ PBMC were counted and washed with PBS (Lonza). PBMCs were resuspended in Fixable Viability Stain 575V (BD) diluted 1:1,000 in PBS and incubated for 10 minutes. PBMCs were then washed twice in PBS to remove residual viability stain. PBMCs were then resuspended in Horizon Brilliant Stain Buffer (BD) with 10 uL per test of human Fc receptor binding inhibitor (eBioscience) and incubated on ice for 20 minutes to block Fc receptors. […] PBMCs were incubated 20 minutes on ice and then washed three times with 2% FBS PBS. To visualize TNFR chimeric antibody binding, PBMCs were resuspended in goat anti-human Fc-PE F(ab′)₂ secondary reagent (Jackson ImmunoResearch) diluted 1:200 in 2% FBS PBS and incubated on ice for 20 minutes. Cells were then washed three times in 2% FBS PBS and resuspended in 200 uL 2% FBS PBS for flow cytometry analysis using a BD FACS Celesta instrument and FACS Diva software. T cells were analyzed for chimeric TNFR2 binding by gating on viable cells defined as lymphocytes using forward and side scatter and as T cells by anti-CD3 staining. CD4⁺ and CD8⁺ subsets were identified by commercially available specific antibody conjugates.

[2] = molecular target: T2, soluble human TNFR2; assay: competition ELISA, plate-bound soluble human TNFR2, biotinylated TNFα as competitor
Method: (§1) Soluble human TNFR2 (Sino Biological, 10417-H08H) or cynomolgus TNFR2 (Sino Biological, 90102-C08H) was coated on Nunc-Immuno™ plates at 0.1 μg/ml, 0.5 ug/ml, 1 μg/ml, and 5 μg/ml. […] Plates were developed using TMB and stopped with 3 M HCl.
(§2) IC₅₀ values are reported in nM.

[3] = molecular target: T2, soluble human TNFR2; assay: competition ELISA: plate-bound soluble human TNFR2, competitor biotinylated TNFα; IC50 relative to unlabelled TNFα = 1.00
Method: as §1

[4] = molecular target: T5, cynomolgus TNFR2 on cells (cynomolgus); assay: flow cytometry on cynomolgus PBMC, antibody at 10 ug/mL, anti-human Fc-PE secondary
T5 construct: whole, on cells; also called cynomolgus TNFR2 on CD4+ and CD8+ T cells
Method: Cynomolgus peripheral blood mononuclear cells (PBMCs) from two independent donors were isolated by diluting whole blood (SNBL USA) 1:1 in PBS (Lonza), layering over Ficoll-Paque Plus (GE Healthcare), and centrifuging for 35 minutes at 400×g. The PBMC fraction was removed, washed 3 times in 2% FBS PBS and counted. 0.3×10⁶ PBMC were resuspended in Fixable Viability Stain 575V (BD) diluted 1:1000 in PBS and incubated for 10 minutes. PBMC were then washed twice in PBS to remove residual viability stain, resuspended in Horizon Brilliant Stain Buffer (BD) with 10 uL per test of human Fc receptor binding inhibitor (eBioscience), and incubated on ice for 20 minutes to block Fc receptors. […] PBMC were incubated 20 minutes on ice and then washed three times with 2% FBS PBS. To visualize TNFR2 chimeric antibody binding, PBMC were resuspended in goat anti-human Fc-PE F(ab′)₂ secondary reagent (Jackson ImmunoResearch) diluted 1:200 in 2% FBS PBS and incubated on ice for 20 minutes. Cells were then washed three times in 2% FBS PBS and resuspended in 200 uL 2% FBS PBS for flow cytometry analysis using a BD FACS Celesta instrument and FACS Diva software. T cells were analyzed for chimeric TNFR2 binding by gating on viable cells defined as lymphocytes using forward and side scatter and as T cells by anti-CD3 staining. CD4⁺ and CD8⁺ subsets were identified using commercial specific antibody conjugates.

[5] = molecular target: T3, monomeric human TNFR2 extracellular …; assay: BLI (Octet Red 96), antibody captured on Fc biosensor, monomeric TNFR2 ECD in solution, 1:1 model
Method: (§3) Analysis of binding to the human and cynomolgus TNFR2 ECD was performed using an Octet Red 96 Instrument™ (ForteBio). […] The experiments were performed using five steps: (1) baseline acquisition (60 s); (2) antibody loading on to anti-human or anti-mouse Fc biosensors (120 s); (3) second baseline acquisition (60 s); (4) association of interacting monomeric human or cynomolgus TNFR2 ECD protein for kₒₙ measurement (120 s); and (5) dissociation of interacting monomeric human or cynomolgus TNFR2 ECD for koff measurement (240-3600 s).
(§4) The interacting monomeric human or cynomolgus ECD was used at 5-6 concentrations of a 3-fold concentration series. The data were analyzed using Octet Data Analysis Software 9.0™ (ForteBio) and fit to the 1:1 binding model. The equilibrium dissociation constants (Kd) were calculated by the ratio of […].

[6] = molecular target: T4, monomeric cynomolgus TNFR2 …; assay: as above
Method: as §3, §4

[7] = molecular target: T2, soluble human TNFR2; assay: competition ELISA: plate-bound soluble human TNFR2, competitor biotinylated TNFα, streptavidin-HRP, A450
Method: as §1

[8] = molecular target: T1, human TNFR2 on cells; assay: cell-based or functional assay
[9] = molecular target: T2, soluble human TNFR2; assay: competition ELISA: plate-bound soluble TNFR2, antibody titrated against constant biotinylated TNFα, streptavidin-HRP, A450
Source text: (§5) Soluble human TNFR2 was coated on Nunc-Immuno™ plates. […] IC₅₀ values are reported in nM.
as §2

[10] = molecular target: T2, soluble human TNFR2; assay: competition ELISA (FIG. 2), plate-bound soluble human TNFR2, constant biotinylated TNFα as competitor
Source text: as §5

% CD4^+ ab^+ Donor 1 [1] [%]	% CD4^+ ab^+ Donor 2 [1] [%]	% CD8^+ ab^+ Donor 1 [1] [%]	% CD8^+ ab^+ Donor 2 [1] [%]	Average Relative IC50 [2] [nM]	Relative IC50 [3] [nM]	% CD4^+ ab^+ Donor 1 [4] [%]	% CD4^+ ab^+ Donor 2 [4] [%]	% CD8^+ ab^+ Donor 1 [4] [%]	% CD8^+ ab^+ Donor 2 [4] [%]	Kd [5] [nM]	Kd [6] [nM]	IC50 [7] [nM]	IC50 (µg/mL) (with pre-incubation); rescue of Jurkat H6 cells from 2 ng/mL TNFα, luminescence [8]	IC50 (µg/mL) (without pre-incubation); rescue of Jurkat H6 cells from 2 ng/mL TNFα, luminescence [8]	IC50 [9] [nM]	IC50 [10] [nM]	Binder
44.4	35	23.8	17.7	5.33	5.79	0.7	1.2	0.6	2.1	0.25	470	14.4	–	–	–	–	chimeric SBT-003 (antibody, V domains shown, also called chSBT-003) VH: QIQLVQSGPELKKPGETVKISCKASGYTFTDYSMHWVKQAPGKGLKWMGWINTETGEPTYADDFKGRFAFSSETSTSTAYLQINNLKNDDTTTYFCATYYGSSYVPDYWGQGTSLTVSS VL: DIVMTQSHKFMSTSVGDRVSITCKASQNVGTAVAWYQHKPGQSPKLLIYWTSSRHTGVPDRFTGSGSGTEFTLTISNVQSEDLADYFCHQYSDYPYTFGGGTKLEIK
–	–	–	–	–	–	–	–	–	–	2.7	53.1	–	3.03	2.53	8.27	9.04	SBT-001 (antibody, V domains shown, Parental mouse antibody; also called mouse SBT-001) VH: EVQLQQSGAELVKPGASVKISCKASGYTFTDYNMDWVKQSHGKSLEWIGDINPNYESTSYNQKFKGKATLTVDKSSSTAYMEVRSLTSEDTAVFYCARDKGWYFDVWGAGTTVTVSS VL: ENVLTQSPAIMSASLGEKVTMSCRASSSVKNMYWYQQKSDASPKLWIYYTSNLAPGVPARFSGSGSGNSYSLTISSMEGEDAATYYCQQFTSSPYTFGGGTKLELK
